In the experiment the target is angiostatin-FLAG-HA (pMB281.1). Briefly: ECL sandwich assay on 293 cell lysate, biotinylated anti-FLAG M2 capture.

In the case of “anti-FLAG M2 monoclonal antibody (IBI/Kodak)”, the ECL signal above background (fold above background) is > 2.
